The values that follow are results of earlier work, collected in publication PMC6704634.

What is called Kd is the free concentration of one partner at which half of the binding sites on the other are occupied at equilibrium, for simple one-to-one binding.

The series has as its target EGFR isoform I (Homo sapiens) (UniProt P00533).

EGF (from UniProt P01133): the Kd is 177 nM.
